The source of these data is paper PMC8006170.

Substrate in this data set: NCC(=O)CCC(=O)O
The data set is described as follows: PbgS activity assay in lysate of overexpressing cells, Michaelis-Menten. The format is biochemical, Acinetobacter baumannii. To be noted: native wt lysate included as control to subtract basal activity.

B1: PbgS(wt) (Acinetobacter baumannii ATCC 19606 = CIP 70.34 = JCM 6841) (protein)
chain: MGLQYSSRLTVMEYPPTYPSVIPNIEIVMTYTFNRPAFPATRMRRIRKNDQLRAMVSETQLTTNHLIYPVFVLPGQNQTQDIPSMPNIQRLSADLLLKKAERLLELGVSKLALFPVTPQEDKSLTAEAAWREDGLVQTTCRLLKKELPEMVLITDGALDPYTTHGQDGIIDETGYVLNDETVECLIKQALSHAEAGAEVIAPSDMMDGRIGAIRQALEANGHIYTNIMAYSAKYASSFYGPFRDAVGSASNLKGGNKYNYQMDFANRAEALHEIALDIQEGADMVIVKPGMPYLDVVREVKDTFGIPTFIYQVSGEYAMLAGAIQNGWLSDSVILESLMCCRRAGADGIWTYFAETAAEKLKEMN
On to B1, for which the Km (as a rule, the concentration of substrate that gives half-maximal velocity) amounted to 153 µM.
